From paper PMC9482650, “Quantitative fragmentomics allow affinity mapping of interactomes” (Nature Communications, 2022)

Tests used:
Experiment in all cases: holdup assay
Set-up in all cases: key: below the threshold = too weak to quantify, mostly under pKd 3.1 to 4
Settings in all cases: plain residues with an end cap or a label only (N-terminal biotin on a linker: ado-ado)
LNX1_3, Q8TBB1 = target: LNX1_3, Q8TBB1
FRMPD3, Q5JV73 = target: FRMPD3, Q5JV73
SNTB1, Q13884 = target: T1, SNTB1, Q13884
T1 sequence (Q13884 107-205, limits assumed, looked up): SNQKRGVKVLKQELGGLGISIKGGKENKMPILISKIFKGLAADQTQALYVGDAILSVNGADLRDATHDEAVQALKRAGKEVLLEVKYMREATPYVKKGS

FRMPD4, Q14CM0 = target: FRMPD4, Q14CM0
Sequence of FRMPD4, Q14CM0 (Q14CM0 67-160): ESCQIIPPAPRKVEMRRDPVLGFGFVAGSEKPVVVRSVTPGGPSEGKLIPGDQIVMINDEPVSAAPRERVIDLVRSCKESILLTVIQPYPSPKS

CASK, O14936 = target: CASK, O14936
Sequence of CASK, O14936 (O14936 487-570): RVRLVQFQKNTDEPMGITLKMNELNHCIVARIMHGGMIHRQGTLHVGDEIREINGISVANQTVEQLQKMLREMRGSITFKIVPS

Inadl_1, Q8NI35 = target: Inadl_1, Q8NI35
Sequence of Inadl_1, Q8NI35 (Q8NI35 113-229): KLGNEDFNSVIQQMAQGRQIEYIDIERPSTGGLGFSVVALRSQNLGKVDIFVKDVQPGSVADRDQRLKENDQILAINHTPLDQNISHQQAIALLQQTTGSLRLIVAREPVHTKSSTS

SCRIB_2, Q14160 = target: SCRIB_2, Q14160
Sequence of SCRIB_2, Q14160 (Q14160 857-960): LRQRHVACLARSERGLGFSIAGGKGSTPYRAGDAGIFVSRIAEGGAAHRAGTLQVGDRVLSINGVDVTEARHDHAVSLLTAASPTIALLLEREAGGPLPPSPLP

GRIP2_7, Q9C0E4 = target: GRIP2_7, Q9C0E4
Sequence of GRIP2_7, Q9C0E4 (Q9C0E4 934-1023): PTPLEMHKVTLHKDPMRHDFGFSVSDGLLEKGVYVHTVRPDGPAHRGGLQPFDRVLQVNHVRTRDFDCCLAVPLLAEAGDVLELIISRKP

GRIP1_3, Q9Y3R0 = target: T2, GRIP1_3, Q9Y3R0
T2 sequence (Q9Y3R0 247-346, limits assumed, looked up): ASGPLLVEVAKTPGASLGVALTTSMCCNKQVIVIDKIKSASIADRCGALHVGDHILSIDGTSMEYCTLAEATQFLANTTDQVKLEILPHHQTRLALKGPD

LNX1_2, Q8TBB1 = target: LNX1_2, Q8TBB1
Sequence of LNX1_2, Q8TBB1 (Q8TBB1 371-470): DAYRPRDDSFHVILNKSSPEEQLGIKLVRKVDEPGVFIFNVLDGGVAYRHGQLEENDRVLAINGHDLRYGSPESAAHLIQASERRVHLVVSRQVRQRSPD

GORASP1, Q9BQQ3 = target: GORASP1, Q9BQQ3
Sequence of GORASP1, Q9BQQ3 (Q9BQQ3 1-208): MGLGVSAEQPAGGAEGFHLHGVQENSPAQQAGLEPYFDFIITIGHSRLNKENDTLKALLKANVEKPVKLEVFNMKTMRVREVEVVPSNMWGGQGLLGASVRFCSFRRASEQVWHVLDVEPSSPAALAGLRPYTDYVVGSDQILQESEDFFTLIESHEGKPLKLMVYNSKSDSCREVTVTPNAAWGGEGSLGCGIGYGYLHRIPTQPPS

MAGI1_1, Q96QZ7 = target: MAGI1_1, Q96QZ7
Sequence of MAGI1_1, Q96QZ7 (Q96QZ7 1-106): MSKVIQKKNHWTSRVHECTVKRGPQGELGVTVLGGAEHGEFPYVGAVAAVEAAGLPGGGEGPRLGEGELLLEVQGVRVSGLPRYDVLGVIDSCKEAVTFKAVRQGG

PICK1, Q9NRD5 = target: PICK1, Q9NRD5
Sequence of PICK1, Q9NRD5 (Q9NRD5 17-115): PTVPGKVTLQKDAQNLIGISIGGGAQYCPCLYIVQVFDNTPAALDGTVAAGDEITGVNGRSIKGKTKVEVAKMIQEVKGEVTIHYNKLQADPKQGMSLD

APBA2_2, Q99767 = target: T3, APBA2_2, Q99767
T3 sequence (Q99767 654-744, limits assumed, looked up): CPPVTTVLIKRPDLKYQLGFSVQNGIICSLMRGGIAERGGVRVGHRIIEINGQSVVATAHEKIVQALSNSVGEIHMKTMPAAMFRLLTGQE

Inadl_6, Q8NI35 = target: Inadl_6, Q8NI35
Sequence of Inadl_6, Q8NI35 (Q8NI35 1058-1167): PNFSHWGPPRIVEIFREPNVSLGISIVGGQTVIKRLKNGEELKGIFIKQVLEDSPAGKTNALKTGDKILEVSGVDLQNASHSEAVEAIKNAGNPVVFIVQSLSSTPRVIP

TX1BP3, O14907 = target: T4, TX1BP3, O14907
T4 sequence (O14907 10-122, limits assumed, looked up): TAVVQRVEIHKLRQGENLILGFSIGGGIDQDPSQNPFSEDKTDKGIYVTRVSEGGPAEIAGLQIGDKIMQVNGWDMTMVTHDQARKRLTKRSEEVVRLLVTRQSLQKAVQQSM

GRIP1_5, Q9Y3R0 = target: T5, GRIP1_5, Q9Y3R0
T5 sequence (Q9Y3R0 568-668, limits assumed, looked up): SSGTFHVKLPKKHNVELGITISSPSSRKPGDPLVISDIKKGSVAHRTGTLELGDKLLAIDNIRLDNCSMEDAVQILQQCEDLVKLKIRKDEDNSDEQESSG

DLG4_3, P78352 = target: DLG4_3, P78352
Sequence of DLG4_3, P78352 (P78352 306-403): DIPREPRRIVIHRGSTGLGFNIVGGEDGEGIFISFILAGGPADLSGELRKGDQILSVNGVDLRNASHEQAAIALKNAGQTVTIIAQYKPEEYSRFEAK

SCRIB_3, Q14160 = target: SCRIB_3, Q14160
Sequence of SCRIB_3, Q14160 (Q14160 999-1103): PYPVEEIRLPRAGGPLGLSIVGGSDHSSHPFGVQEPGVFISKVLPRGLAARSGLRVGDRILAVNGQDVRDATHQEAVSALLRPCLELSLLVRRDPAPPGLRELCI

MAGI2_5, Q86UL8 = target: MAGI2_5, Q86UL8
Sequence of MAGI2_5, Q86UL8 (Q86UL8 915-1017): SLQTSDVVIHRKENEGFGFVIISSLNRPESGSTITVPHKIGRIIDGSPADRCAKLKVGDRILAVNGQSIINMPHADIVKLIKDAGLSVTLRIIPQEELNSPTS

LNX1_1, Q8TBB1 = target: LNX1_1, Q8TBB1
Sequence of LNX1_1, Q8TBB1 (Q8TBB1 261-371): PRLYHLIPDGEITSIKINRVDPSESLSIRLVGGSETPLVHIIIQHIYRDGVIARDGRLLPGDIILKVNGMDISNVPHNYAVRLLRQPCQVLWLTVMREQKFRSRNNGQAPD

RADIL, Q96JH8 = target: T6, RADIL, Q96JH8
T6 sequence (Q96JH8 971-1071, limits assumed, looked up): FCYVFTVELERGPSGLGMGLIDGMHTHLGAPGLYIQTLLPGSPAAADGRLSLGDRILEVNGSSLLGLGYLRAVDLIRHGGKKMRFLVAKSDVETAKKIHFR

DLG4_2, P78352 = target: DLG4_2, P78352
Sequence of DLG4_2, P78352 (P78352 155-259): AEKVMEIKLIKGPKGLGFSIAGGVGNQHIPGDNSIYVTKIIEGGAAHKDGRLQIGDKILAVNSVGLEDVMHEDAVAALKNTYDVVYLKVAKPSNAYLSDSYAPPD

MAGI1_2, Q96QZ7 = target: MAGI1_2, Q96QZ7
Sequence of MAGI1_2, Q96QZ7 (Q96QZ7 456-580): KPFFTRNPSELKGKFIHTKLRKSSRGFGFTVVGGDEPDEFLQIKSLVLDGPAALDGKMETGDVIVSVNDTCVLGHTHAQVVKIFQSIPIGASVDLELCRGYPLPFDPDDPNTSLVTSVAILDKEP

PDZRN4_1, Q6ZMN7 = target: PDZRN4_1, Q6ZMN7
Sequence of PDZRN4_1, Q6ZMN7 (Q6ZMN7 213-318): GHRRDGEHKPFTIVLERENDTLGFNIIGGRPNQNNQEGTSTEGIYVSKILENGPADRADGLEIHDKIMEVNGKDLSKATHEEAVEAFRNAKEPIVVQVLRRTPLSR

MAGI2_6, Q86UL8 = target: MAGI2_6, Q86UL8
Sequence of MAGI2_6, Q86UL8 (Q86UL8 1141-1229): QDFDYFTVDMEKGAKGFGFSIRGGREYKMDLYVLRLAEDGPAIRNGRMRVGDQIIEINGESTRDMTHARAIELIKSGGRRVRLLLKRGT

SNX27, Q96L92 = target: SNX27, Q96L92
PDZRN3_1, Q9UPQ7 = target: T7, PDZRN3_1, Q9UPQ7
T7 sequence (Q9UPQ7 244-349, limits assumed, looked up): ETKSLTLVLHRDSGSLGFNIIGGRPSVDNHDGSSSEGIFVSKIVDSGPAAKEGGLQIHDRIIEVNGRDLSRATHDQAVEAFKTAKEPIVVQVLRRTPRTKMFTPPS

IL16_4, Q14005 = target: IL16_4, Q14005
Sequence of IL16_4, Q14005 (Q14005 1229-1329): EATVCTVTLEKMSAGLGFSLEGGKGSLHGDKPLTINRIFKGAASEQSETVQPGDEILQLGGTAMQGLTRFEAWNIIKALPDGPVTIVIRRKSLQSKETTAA

GRIP2_4, Q9C0E4 = target: GRIP2_4, Q9C0E4
Sequence of GRIP2_4, Q9C0E4 (Q9C0E4 446-548): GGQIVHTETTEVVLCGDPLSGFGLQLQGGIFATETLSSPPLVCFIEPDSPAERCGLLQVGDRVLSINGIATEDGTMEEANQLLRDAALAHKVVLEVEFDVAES

Sequence of LNX1_3, Q8TBB1 (Q8TBB1 500-596): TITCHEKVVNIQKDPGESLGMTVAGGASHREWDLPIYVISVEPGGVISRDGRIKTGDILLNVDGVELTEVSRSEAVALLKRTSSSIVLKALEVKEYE
Sequence of FRMPD3, Q5JV73 (Q5JV73 12-100): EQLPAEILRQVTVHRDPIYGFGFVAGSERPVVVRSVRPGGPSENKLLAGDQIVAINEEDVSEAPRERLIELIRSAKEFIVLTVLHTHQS

| Binder | pKd (LNX1_3, Q8TBB1) | pKd (FRMPD3, Q5JV73) | pKd (SNTB1, Q13884) | pKd (FRMPD4, Q14CM0) | pKd (CASK, O14936) | pKd (Inadl_1, Q8NI35) | pKd (SCRIB_2, Q14160) | pKd (GRIP2_7, Q9C0E4) | pKd (GRIP1_3, Q9Y3R0) | pKd (LNX1_2, Q8TBB1) | pKd (GORASP1, Q9BQQ3) | pKd (MAGI1_1, Q96QZ7) | pKd (PICK1, Q9NRD5) | pKd (APBA2_2, Q99767) | pKd (Inadl_6, Q8NI35) | pKd (TX1BP3, O14907) | pKd (GRIP1_5, Q9Y3R0) | pKd (DLG4_3, P78352) | pKd (SCRIB_3, Q14160) | pKd (MAGI2_5, Q86UL8) | further results |
| --- | --- | --- | --- | --- | --- | --- | --- | --- | --- | --- | --- | --- | --- | --- | --- | --- | --- | --- | --- | --- | --- |
| HSGYRLNDYV [CLDN14, O95500] | below the threshold | below the threshold | 3.54 | 3.58 | below the threshold | below the threshold | below the threshold | below the threshold | below the threshold | 3.61 | 3.75 | below the threshold | 4.13 | below the threshold | below the threshold | 4.24 | below the threshold | below the threshold | below the threshold | below the threshold | pKd (LNX1_1, Q8TBB1): below the threshold; pKd (RADIL, Q96JH8): 4.6; pKd (DLG4_2, P78352): below the threshold; pKd (MAGI1_2, Q96QZ7): below the threshold; pKd (PDZRN4_1, Q6ZMN7): below the threshold; pKd (MAGI2_6, Q86UL8): 4.12; pKd (SNX27, Q96L92): 3.72; pKd (PDZRN3_1, Q9UPQ7): below the threshold; pKd (IL16_4, Q14005): below the threshold; pKd (GRIP2_4, Q9C0E4): below the threshold |
| DDENIRTSDV [PLEKHA2, Q9HB19] | below the threshold | below the threshold | 5.37 | below the threshold | below the threshold | below the threshold | 3.75 | below the threshold | below the threshold | below the threshold | below the threshold | below the threshold | below the threshold | below the threshold | below the threshold | 4.75 | below the threshold | below the threshold | 3.99 | below the threshold | pKd (LNX1_1, Q8TBB1): 4.5; pKd (RADIL, Q96JH8): below the threshold; pKd (DLG4_2, P78352): 4.38; pKd (MAGI1_2, Q96QZ7): below the threshold; pKd (PDZRN4_1, Q6ZMN7): below the threshold; pKd (MAGI2_6, Q86UL8): 5.21; pKd (SNX27, Q96L92): 4.84; pKd (PDZRN3_1, Q9UPQ7): below the threshold; pKd (IL16_4, Q14005): below the threshold; pKd (GRIP2_4, Q9C0E4): below the threshold |
| KKMPSIESDV [GRIN2A, Q12879] | below the threshold | below the threshold | 4.69 | below the threshold | below the threshold | below the threshold | 4.43 | below the threshold | below the threshold | below the threshold | below the threshold | below the threshold | below the threshold | below the threshold | below the threshold | 5.13 | below the threshold | below the threshold | 4.85 | below the threshold | pKd (LNX1_1, Q8TBB1): 4.04; pKd (RADIL, Q96JH8): below the threshold; pKd (DLG4_2, P78352): 5.29; pKd (MAGI1_2, Q96QZ7): below the threshold; pKd (PDZRN4_1, Q6ZMN7): below the threshold; pKd (MAGI2_6, Q86UL8): 4.91; pKd (SNX27, Q96L92): 3.64; pKd (PDZRN3_1, Q9UPQ7): below the threshold; pKd (IL16_4, Q14005): below the threshold; pKd (GRIP2_4, Q9C0E4): below the threshold |
| TSSMRGMDAV [RSRC2, Q7L4I2] | below the threshold | below the threshold | below the threshold | below the threshold | below the threshold | below the threshold | below the threshold | below the threshold | below the threshold | below the threshold | below the threshold | below the threshold | below the threshold | below the threshold | below the threshold | below the threshold | below the threshold | below the threshold | below the threshold | below the threshold | pKd (LNX1_1, Q8TBB1): below the threshold; pKd (RADIL, Q96JH8): below the threshold; pKd (DLG4_2, P78352): below the threshold; pKd (MAGI1_2, Q96QZ7): below the threshold; pKd (PDZRN4_1, Q6ZMN7): below the threshold; pKd (MAGI2_6, Q86UL8): below the threshold; pKd (SNX27, Q96L92): below the threshold; pKd (PDZRN3_1, Q9UPQ7): below the threshold; pKd (IL16_4, Q14005): below the threshold; pKd (GRIP2_4, Q9C0E4): below the threshold |
| TACCHSETVV [TGFA, P01135] | below the threshold | below the threshold | 4.95 | below the threshold | below the threshold | below the threshold | 4.1 | below the threshold | below the threshold | 3.9 | 3.67 | below the threshold | below the threshold | below the threshold | 3.55 | 3.82 | below the threshold | below the threshold | 4.14 | 4.36 | pKd (LNX1_1, Q8TBB1): 4.12; pKd (RADIL, Q96JH8): 4.35; pKd (DLG4_2, P78352): 4.82; pKd (MAGI1_2, Q96QZ7): 4.24; pKd (PDZRN4_1, Q6ZMN7): 3.67; pKd (MAGI2_6, Q86UL8): 3.81; pKd (SNX27, Q96L92): 5.6; pKd (PDZRN3_1, Q9UPQ7): 3.78; pKd (IL16_4, Q14005): below the threshold; pKd (GRIP2_4, Q9C0E4): below the threshold |
